assay: soluble on expression in E. coli; label from the status in PepcDB or PDB records

**Q.** For “MGSDKIHHHHHHVLDKIELFILDMDGTFYLDDSLLPGSLEFLETLKEKNKRFVFFTNNSSLGAQDYVRKLRNMGVDVPDDAVVTSGEITAEHMLKRFGRCRIFLLGTPQLKKVFEAYGHVIDEENPDFVVLGFDKTLTYERLKKACILLRKGKFYIATHPDINCPSKEGPVPDAGSIMAAIEASTGRKPDLIAGKPNPLVVDVISEKFGVPKERMAMVGDRLYTDVKLGKNAGIVSILVLTGETTPEDLERAETKPDFVFKNLGELAKAVQ”, which “soluble on expression in E. coli” value is on record?
**A.** soluble

**Q.** For “MGSDKIHHHHHHVLNVNELVKTELHCHLDGSLSLGVIRQLAQMAKITIPAEDEALRKLVSVHGKVDSLMAYLKLFDFVRPLLQTATALELAAYDLVRQAASDKVIYIEVRFAPELSTDQDLTILEAVSAVLVGLNRGQEDFGVLAKLLVCGLKQTNTNQTKELFSAIADLAPKGLVGFDFAGNEADYPTEELRDIIQFTQSLGYPMTFHAGECGCVINVIQALELGIRRIGHGTALTRNPEAIQAFVNSGATLEMCLTSNLQTGAADSIEYFPYRELVEAGANITINTDNRTVSNTTLNREYQLFVEYFGTSKADFYRFNQNAIQASFASEGEKKVLLELLDQQY”, which “soluble on expression in E. coli” value is on record?
**A.** not soluble

**Q.** For “MGSDKIHHHHHHVLTNQTGYEYHKCTDLTAMIKDYIDNWQKNNAHFDGIYSGFMTGSKQIELFMDFLDVFYEKNTMLLVDPVMGDDGRTYGIYSAALLDGMKALSRKADVITPNLTEACLLADYDIEKVYSDTRKDVLLPIAAEISEKLRCLSGKNQDVIITGIKCRDDKSPFIYNLVTTANGTTTHRSHFFDVSFSGTGDLFASVICGSRLNGFSTEEAAERAGKFLYDSIADTMNDDTAPNDGVNFEKFLRELM”, which “soluble on expression in E. coli” value is on record?
**A.** not soluble

**Q.** For “MGSDKIHHHHHHVNDGSNDFELLGSPWICENPHANWTAPAAHGMFKRFKKKEIIIHSGDQIDYIYYLHKGRIKTVAQSPSGSQKILWYIEAGSIFGETPFFNRKPCDYNFFAVTDCEIYIYPMEVIMQEIIPKFPDLTLSIIKTLSRKVHILSTQVEDCVFNKPLVRVAKLIYLLHQGRILEDKRGSSSIPLTQEDIANTLGMHRVTVNQALKHLKEIQALKEHTHLIIIHDPEKLKEVMEA”, which “soluble on expression in E. coli” value is on record?
**A.** not soluble

**Q.** Which “soluble on expression in E. coli” value does the source give for “MGSDKIHHHHHHVPPLRLAIVGDIHDQWTLADQQLLLQLQPDLTLFVGDFGNESLALVQAIAAIPLRKAVILGNHDAWYTATRWRRSQCPYDWMRENRFEQQLEALGGLHIGYGRLDFPEWNLSVVGGRPCSAGGSQWQHRRFYRHYYQVGSFPESAQRIADCAIASPCDRVLFLAHCGPSGLGDQPEDPCGKDWSRPGGDFGDPDLAMAIAQVQAQKVVPLVCFGHMHHRLRHRRDRPRRSWHRDTAGTVYLNAAASPRILKAQQTTLHHLLWVELSDSLVTAQQTWWTPAGVLVQSEELPLVPQPA” here?
**A.** not soluble

**Q.** Which “soluble on expression in E. coli” value does the source give for “MGSDKIHHHHHHVPRVRTVKEDHRAGVWCARGMTGLLRRLHAVLDEFNAAYPWDHNAYYHRWILRQLPPRFGRALDAGSGSGDLARLLAGRADRVCGIDIDPVITARARELTDPAAPVVFTVGDVLTDTPAGPYDVVTCVAAVHHMPLAEALTCFRDLLAPGGTLVVVGLYRAHDPIDVLLDGVSVVLNPLIGWVRHRGRRAPRPVSMTAVTTPATMTFAEIVAEARRVLPRARLRRRLLWRYTLVWRKP” here?
**A.** not soluble

**Q.** With “MGSDKIHHHHHHVRIESIRTKNFKILKDTTIRNIPAMAIFLGANGSGKSTFFDIFGFLHDCLTDNVRAALLKRGGFKEVVSRGQSGPIEFEIKFRSAPGEPLVTYELHINLDDKGLPIVSKELLKYRRGQKGRPWHFLDFSNGVGHAIVNESEYGKPGVQEAREQQTLDSPDILAIKGLGQFQKYKQIASFRRLIEGWHVSDFRIESARSTNDAGYAEHLSATGDNLALVTQFMHEHYSDRFQQVLEKIAQRVPGIKSVEAKETADGRIVLRFQNEEFKDPFISRYVSDGTLKMFAYLILLYDPTPHPLLCIEEPENQLHPDLLLELAEEFRAYASNGGQVFISTHSPDFVNAVQLEELFWLCQGNNGFSKVVRASDEPLLQSLVAEGDLPGSLWKQGFFEGAGPL” as the sequence, how does the “soluble on expression in E. coli” value read?
**A.** not soluble

**Q.** Which “soluble on expression in E. coli” value does the source give for “MGSDKIHHHHHHVSTSVTKRPLTLVLASPRGFCAGVDRAIHIVERALEKYGAPVYVRHEIVHNRFVVESLAQKGAVFVEELDEVPDEAAVVFSAHGVPKTVPAEADRRGLTSLDATCPLVTKVHREAELHHAMGRQIIMIGHAGHPEVIGTIGQVPDGTVLLVGTPEEAEKVAPKNASMLAYITQTTLSVDDAAAVTEVLQRRFPEIVGPKREDICYATTNRQAAVKTIAPKCEALMVIGSPNSSNSSRLVEVAARAGCARSVLVQRAAEVDWSLLDGVDRLGITAGASAPEILVEEVVAAARERFDVTIEEIRVTTETVTFKLPQALSE” here?
**A.** not soluble

**Q.** For “MGSDKIHHHHHHVTDHGFSFCAHAEQYAIIGSLSQLETSDNRDCDIRRPALNRCMAEKGTLRPEAAQIFQRLEALGLKQRELAQALGIEENKISKVRAGERQFKGAELLAAYEWLDQREAEAHMPRLSRVAAVGQQVIPATPVEGEVVQIQKLDLSLSMGPGTLIDGYVESELVSFDLGFVRLFTRAASDHLRLVTGIGDSMEPTLKWGDLILIDTTDRMLSKQDGIYWINLYGAAGIKRLRAIGPRTILVKSDNPGVDDQEVEAEDLRIEGRAIWATRGL”, which “soluble on expression in E. coli” value is on record?
**A.** not soluble

**Q.** For “MGSDKIHHHHHHVTRVAVVGDSLSAYAVAAVLTKLGYNCDLLCYPTKSNFYGPSLVLNDVSETLLSELFPDVNLGVDSQRLTHRWVCWGTQPVQIEQPALAIRSNSLLELLRNSKVMQHTRMIDASQLTAQQISQKYAWTVYTKHKQRGMPTLGEPCLQNAARSLLPRSRSVPQGSGTPTAGVAIALSESSQSLIGGQRVIVTAEVQDTPKSAYTCYMESLAEGWLFYAPVNGSGAMVQACLPITPANPRRALLECLYKSTTISTFVNDLQKVNCFFSAPYLEWPLCGLGWLMVGEPAIKIDPVSGEGTPFALRSAILAGAVIDAILSDRIPDISALNHYQTRLTHSFISHLRGCIQFYREVFSTNLAWQAEINQMIDIAETLSTQLEQQAVNVLNYRLIDFELHIG”, which “soluble on expression in E. coli” value is on record?
**A.** not soluble

**Q.** With “MGSDKIHHHHHHVTTIRFLNGLNTIGGNIVEFATKTSRVIMDFGVAADLSNETVSSAIDNGKLPHVPELFFDQPDVYTHEAIFISHLHIDHMGALQYLKKPIPIYLSEPSYKLYQLLIKLGIEKPVANLHPLAYEQPLTIGDLTVTGFHSDHDEPGVMALLVDDGSRRYAHSGDVRLNGPHAKRVHAWAKRFNQEKLSLFMLEGTSFSFDTAAPVEDQDHPSIPLTEMSLQKQFQTVLAESPTLVVINPYIRNYERLASFQASAHTAGRQLVWEPDDAAVLTTMTDQKPDAILGQTISLTDIARDPQHYVLQNSFDHLERLTDMPITTYIHSNGEPLGDYDPRFAQLKDWLEAHHIPLQFMNASGHASREDLITLAKEVNPRTIVPWHSFHPEREAEALDTQTNAAVVLPERDLYYDFDELSEDE” as the sequence, how does the “soluble on expression in E. coli” value read?
**A.** not soluble

**Q.** For “MGSDKIHHHHHHVVEQSLSVRNGIRHIVWDWNGTLLDDNHANLAAANHVCEMFGVPPMTLEDWRKIFRRPLVPFYEELLGRPLSDEEWQRLDAAYNSYYQRLLPSCRLADGAVDTLHQWRRAGGTQSLLSMAAHDHLVPVITEFGLVSHFTRVDGRQRTTDADSKAEYLAAHLDAQGIDPATVVLIGDIDDDAHAARMVGAKAVLVATGLMSRERLEATGHPVADSLTEAVQLVHG”, which “soluble on expression in E. coli” value is on record?
**A.** not soluble

**Q.** For “MGSDKIHHHHHHVVIGFFKKLFNVRDRNEQAKFTGITTAEKRQQTKPQTPVPAIEVTEHQAVESQLDLSALFYSLLFATPSTTTTGIANNLERSVMQNIEQALSSPQSIAENVLKLPSKILELDKKLGDDNIETQELILLIEQDPLLCVEVLKLCNSPAFKRADTDVSSIQQALVQVGRQQLRQFITACLARELIDIKPIYFRRFGAEIWRHSMQVAFLASELASNEQRDSAFLLGLLHDVGKIAIFKMLVDAFYQAEPGEQPNSILFKQVMTTKSLTLSALLARSWQLSQHFETPLTLLANTNIKPTDGMTLLIWKANIISECSMLLQVDKLPQPALAVLLAQVECSEEDFIELHQKLIQF”, which “soluble on expression in E. coli” value is on record?
**A.** not soluble

**Q.** For “MGSDKIHHHHHHVYKALFFDVDDTLLNFEQCSREALGKTFRHFSMDYDDTVYELFRSIDQRLWLQQKQGELTVQDVINLRFQELFKQLQLGCSHIPLQTMFQERLAEEFFTEPHAAESLGYLSARYQLFVTSNGILKTQLKRLELAGLLPYFTDVFVSDHIGHEKPSVRFFEECLQRSRLKPSEVLLIGDSLEADMVGAQTSKMDSCWYNPKHRNTDSDVEIDYIISDLLQLKDILQ”, which “soluble on expression in E. coli” value is on record?
**A.** not soluble

**Q.** With “MGSDKIHHHHHHYRPLFDKDLSNADYDSSVWTFKNGILTATADQSIWTKVQYENFILDLEFKTDVNTNSGVVIYCTDKGNWIPSSIEIQIADDHHPEWQSYPEYWRCGSIYGHKGANEQLVVKKPGEWNRMIITAKGQQIDIELNGKHIVSANLADWTSGTTNPDGTEIPEWLPIPYANMPTKGYIGLQGKHGESNIWFRNIQLKQL” as the sequence, how does the “soluble on expression in E. coli” value read?
**A.** not soluble

**Q.** With “MGSKRRFSSEHPDPVETSIPEQAAEIAEELSKQHPLPSEEPLVHHDAGEFKGLQRHHTSAEEAQKLEDGKINPFTGREFTPKYVDILKIRRELPVHAQRDEFLKLYQNNQIMVFVGETGSGKTTQIPQFVLFDEMPHLENTQVACTQPRRVAAMSVAQRVAEEMDVKLGEEVGYSIRFENKTSNKTILKYMTDGMLLREAMEDHDLSRYSCIILDEAHERTLATDILMGLLKQVVKRRPDLKIIIMSATLDAEKFQRYFNDAPLLAVPGRTYPVELYYTPEFQRDYLDSAIRTVLQIHATEEAGDILLFLTGEDEIEDAVRKISLEGDQLVREEGCGPLSVYPLYGSLPPHQQQRIFEPAPESHNGRPGRKVVISTNIAETSLTIDGIVYVVDPGFSKQKVYNPRIRVESLLVSPISKASAQQRAGRAGRTRPGKCFRLYTEEAFQKELIEQSYPEILRSNLSSTVLELKKLGIDDLVHFDFMDPPAPETMMRALEELNYLACLDDEGNLTPLGRLASQFPLDPMLAVMLIGSFEFQCSQEILTIVAMLSVPNVFIRPTKDKKRADDAKNIFAHPDGDHITLLNVYHAFKSDEAYEYGIHKWCRDHYLNYRSLSAADNIRSQLERLMNRYNLELNTTDYESPKYFDNIRKALASGFFMQVAKKRSGAKGYITVKDNQDVLIHPSTVLGHDAEWVIYNEFVLTSKNYIRTVTSVRPEWLIEIAPAYYDLSNFQKGDVKLSLERIKEKVDRLNELKQGKNKKKSKHSKKHHHHHH” as the sequence, how does the “soluble on expression in E. coli” value read?
**A.** soluble

**Q.** For “MGSKTKKSFTVLLAFIMSFSVTGCFDKREIDDLVNPIAIGFDKGSNHSVRMTLQIAIPTKVAGGGEGGGGGGGEESVSYTTVEAPSIYSGLNMINSYVSKQLNMSQIKVLVFSEELAREGIEKYINALMRGREFRPHSYVIVARGTGNAAERYLRAVEPELESNPAKYYEMLLSAYTYTGFTANTSLTNFYKNMVSESTQPLAVLADISKFEKSDDINMDNSSYQEKGREFPLEGDFKAGDMPKVGTIKSEVMGLAVFNGSKMVGELDGEETQLQLMLEGNFGYSYVTIPDPEAEDYVVLLNIKQNRKPKRKVEIVDEKPHIKVNIYLEADILSIQSGVNYESLEKVKILEDAAEKFFEKGFLRMLKKTAKEFKSDIAGFGKEMKGKFLTWDEWTNFNWIEKYPDSEFEVDVDLKIRRPGLMLRTYPAAGTEVGEE”, which “soluble on expression in E. coli” value is on record?
**A.** soluble

**Q.** For “MGSRDDEYDYLFKVVLIGDSGVGKSNLLSRFTRNEFNLESKSTIGVEFATRSISVEGKTVKAQIWDTAGQERYRAITSAYYRGAVGALLVYDIAKHVTYENVERWLKELRDHADQNIVIMLVGNKSDLRHLRAVPTDEAKIYAERNQLSFIETSALDSTNVEAAFTNILTEIYKSVSNKHVGTDRQGYGGGSGTIIPSPASDPPKKQCCIP”, which “soluble on expression in E. coli” value is on record?
**A.** not soluble

**Q.** Which “soluble on expression in E. coli” value does the source give for “MGSRENLYFQGLEHHHHHHHMKNVKTLIAAAILSSMSFASFAAVEVQSTPEGQQKVGTISANAGTNLGSLEEQLAQKADEMGAKSFRITSVTGPNTLHGTAVIYK” here?
**A.** soluble
